Data reported in patent WO2012028683A1 (dated 2012).

Target: T1, recombinant human SOST (human, UniProt Q9BQB4 24-213, labeled with Cy5 (site not stated))
T1 construct: Acceptor-labelled partner in the FRET assay; also called sclerostin; Cy5-SOST
T1 sequence (looked up): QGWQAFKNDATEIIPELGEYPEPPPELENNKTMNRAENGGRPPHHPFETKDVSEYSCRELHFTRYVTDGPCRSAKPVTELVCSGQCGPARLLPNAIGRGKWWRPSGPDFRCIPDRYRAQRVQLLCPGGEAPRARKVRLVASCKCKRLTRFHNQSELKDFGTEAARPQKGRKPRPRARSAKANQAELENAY
Assay: FRET competition assay (inhibition of SOST binding to LRP6(Fc)), antibody released from the PBS gel

B1: ANTIBODY 1 (antibody, human IgG2, lambda, V domains shown)
VH: QVQLVESGGGLVQPGGSLRLSCAASGFTFRSHWLSWVRQAPGKGLEWVSNINYDGSSTYYADSVKGRFTISRDNSKNTLYLQMNSLRAEDTAVYYCARDTYLHFDYWGQGTLVTVSS
VL: DIALTQPASVSGSPGQSITISCTGTSSDVGDINDVSWYQQHPGKAPKLMIYDVNNRPSGVSNRFSGSKSGNTASLTISGLQAEDEADYYCQSYAGSYLSEVFGGGTKLTVLG
notes: also called anti-sclerostin antibody; mAb
binding result: binds
